# Patent publication US20180306791A1 (GlaxoSmithKline, published 2018)
# T1: BCMA (human, UniProt Q02223 1-184)
# T1 construct: whole, on cells; Endogenous on human cell lines and patient cells, or from plasmid pCDNA3.1 hBCMA in ARH-77 cells; also called CD269; TNFRSF17
# T1 sequence (looked up): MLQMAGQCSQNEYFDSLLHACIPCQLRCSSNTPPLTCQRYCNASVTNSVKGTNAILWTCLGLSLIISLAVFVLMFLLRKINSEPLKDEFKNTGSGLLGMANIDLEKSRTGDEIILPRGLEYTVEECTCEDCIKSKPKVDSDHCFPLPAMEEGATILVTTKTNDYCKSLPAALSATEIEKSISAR
# B1: J6M0-wtFc (antibody, IgG1, V domains shown)
# VH: QVQLVQSGAEVKKPGSSVKVSCKASGGTFSNYWMHWVRQAPGQGLEWMGATYRGHSDTYYNQKFKGRVTITADKSTSTAYMELSSLRSEDTAVYYCARGAIYDGYDVLDNWGQGTLVTVSS
# VL: DIQMTQSPSSLSASVGDRVTITCSASQDISNYLNWYQQKPGKAPKLLIYYTSNLHSGVPSRFSGSGSGTDFTLTISSLQPEDFATYYCQQYRKLPWTFGQGTKLEIKR
# notes: PE-conjugated for flow cytometry; no sentence says it outright; also called J6M0-wtFc PE; wild type Fc form of J6M0
# B2: S307118G03 (antibody, from another filing, mouse IgG2a, V domains shown)
# VH: EVQLQQSGPELVKPGASVKISCKASGYTFTDYYMKWVKQSHGKSLEWIGEIYPNNGGITYNQKFKGKATLTVDKSSSTAYMELRSLTSEDSAVYYCANGYEFVYWGQGTLVTVSA
# VL: DIQMTQTASSLSASLGDRVTISCSASQGISNYLNWYQQKPDGTVKLLIYYTSSLHSGVPSRFSGSGSGTDYSLTISNLEPEDIATYYCQQYSKLPWTFGGGTKLEIKR
# How the values were obtained:
# BCMA [1] = biological target: T1, BCMA; assay: flow cytometry of CD138+ cells of patient GSK085; number in the title of panel III
# Method: (§1) FIG. 14: J6M0-MMAF activity on primary CD138+ cells. (A) BM MNCs from one representative patient (GSK 087) with moderate BCMA expression incubated with J6M0-MMAF. Viable CD138+ cells (percentage of control) after 2 and 6 days (left panel) obtained by analyzing CD138+ cells by flow cytometry and gating CD138+ fraction (middle panel) onto AnnexinV/PI dot-plot (right panel). (B) Four representative experiments showing viable CD138+ cells after culture of BM MNCs from myeloma patients with concentrations of J6M0-MMAF at varying time points. For each patient, histogram showing binding of J6M0-wtFc PE to CD138+ cells (black) compared to cells pre-incubated with Fc block as control (white) and where available IHC staining with MIB1 (pink, nuclear) and CD138 (membrane, brown) as a measure of plasma cell proliferation.
# (§2) For assessment of surface BCMA expression, murine anti-BCMA (clone 5307118G03, conjugated to AlexaFluor488), and the humanised antibody, J6M0-wtFc conjugated to PE were used in parallel. In the case of primary MM cells, staining was carried out on bone marrow (BM) mononuclear cells (MNCs) in 100μl PBS (Lonza)/0.5% BSA(PAA), using anti CD138 APC (Miltenyi), to identify tumour cells. […] A semi-quantitative measure of BCMA surface expression on MM cells was obtained from the ratio of the MFI of anti BCMA, versus isotype control stained samples (MFI ratio).
# BCMA [2] = biological target: T1, BCMA; assay: flow cytometry of CD138+ cells of patient GSK087; number in the title of panel IV
# Method: as §1, §2
# BCMA [3] = biological target: T1, BCMA; assay: flow cytometry of CD138+ cells of patient GSK048; number in the title of panel II
# Method: as §1, §2
# BCMA [4] = biological target: T1, BCMA; assay: flow cytometry on KMM1 cells (sheet group NEGATIVE, text: low BCMA expression); ratio of MFI to isotype IgG2a-488; reflects the low level of the target on these cells
# BCMA [5] = biological target: T1, BCMA; assay: flow cytometry on MM1.s cells (sheet group MODERATE); ratio of MFI to isotype IgG2a-488
# BCMA [6] = biological target: T1, BCMA; assay: flow cytometry on JJN3 cells (printed JIN3 on the sheet; group MODERATE); ratio of MFI to isotype IgG2a-488
# BCMA [7] = biological target: T1, BCMA; assay: flow cytometry on H929 cells (sheet group HIGH); ratio of MFI of BCMA stained to isotype IgG2a-488 stained cells
# BCMA [8] = biological target: T1, BCMA; assay: flow cytometry on U266 cells (sheet group MODERATE); ratio of MFI to isotype IgG2a-488
# BCMA [9] = biological target: T1, BCMA; assay: flow cytometry, CD138+ gated bone marrow cells of patient GSK050 (group MODERATE); ratio of MFI to IgG2a-488 control
# BCMA [10] = biological target: T1, BCMA; assay: flow cytometry on JIM3 cells (sheet group MODERATE); ratio of MFI to isotype IgG2a-488
# BCMA [11] = biological target: T1, BCMA; assay: flow cytometry on Daudi cells (non-MM line; group LOW); ratio of MFI to isotype IgG2a-488
# BCMA [12] = biological target: T1, BCMA; assay: flow cytometry on RPMI8226 cells (printed RPM18226; group LOW); ratio of MFI to isotype IgG2a-488
# BCMA [13] = biological target: T1, BCMA; assay: flow cytometry, CD138+ gated bone marrow cells of patient GSK072 (group LOW); ratio of MFI to IgG2a-488 control
# BCMA [14] = biological target: T1, BCMA; assay: flow cytometry, CD138+ gated bone marrow cells of patient GSK064 (group LOW); ratio of MFI to IgG2a-488 control
# BCMA [15] = biological target: T1, BCMA; assay: flow cytometry on SUPT1 cells (non-MM line, sheet group NEGATIVE for BCMA); ratio of MFI to isotype IgG2a-488; reflects absence of the target on these cells
# BCMA [16] = biological target: T1, BCMA; assay: flow cytometry on Raji cells (non-MM line, sheet group NEGATIVE for BCMA); ratio of MFI to isotype IgG2a-488; reflects absence of the target on these cells
# BCMA [17] = biological target: T1, BCMA; assay: flow cytometry inset, low BCMA-transduced (LOW) ARH77 cells; ratio to isotype control
# BCMA [18] = biological target: T1, BCMA; assay: flow cytometry on OPM2 cells (sheet group MODERATE); ratio of MFI to isotype IgG2a-488
# BCMA [19] = biological target: T1, BCMA; assay: flow cytometry, CD138+ gated bone marrow cells of patient GSK045 (group MODERATE); ratio of MFI to IgG2a-488 control
# BCMA [20] = biological target: T1, BCMA; assay: flow cytometry inset, non-transduced (NT) ARH77 cells with negligible surface BCMA; ratio to isotype control
# BCMA [21] = biological target: T1, BCMA; assay: flow cytometry, CD138+ gated bone marrow cells of patient GSK039 (group HIGH); ratio of MFI to IgG2a-488 control
# BCMA [22] = biological target: T1, BCMA; assay: flow cytometry, CD138+ gated bone marrow cells of patient GSK034 (group MODERATE); ratio of MFI to IgG2a-488 control
# BCMA [23] = biological target: T1, BCMA; assay: flow cytometry inset, high BCMA-transduced (HIGH) ARH77 cells; ratio to isotype control
# BCMA [24] = biological target: T1, BCMA; assay: flow cytometry, CD138+ gated bone marrow cells of patient GSK048 (group HIGH); ratio of MFI to IgG2a-488 control
binder,measurement,setting,value
B1,MFI ratio,BCMA [1],3.65
same,MFI ratio,BCMA [2],7
same,MFI ratio,BCMA [3],16.7
B2,MFIr,BCMA [4],1.1
same,MFIr,BCMA [5],6.8
same,MFIr,BCMA [6],4.6
same,MFIr,BCMA [7],15.3
same,MFIr,BCMA [8],5.8
same,MFIr,BCMA [9],6
same,MFIr,BCMA [10],5.7
same,MFIr,BCMA [11],2.9
same,MFIr,BCMA [12],2
same,MFIr,BCMA [13],2
same,MFIr,BCMA [14],2.5
same,MFIr,BCMA [15],1
same,MFIr,BCMA [16],1.2
same,MFIr,BCMA [17],16.6
same,MFIr,BCMA [18],4.5
same,MFIr,BCMA [19],3.8
same,MFIr,BCMA [20],1.8
same,MFIr,BCMA [21],11.2
same,MFIr,BCMA [22],4.8
same,MFIr,BCMA [23],54.8
same,MFIr,BCMA [24],11.2
